Molecular target: T1, soluble EGFR (sEGFR): amino acids 1-619 of mature human EGFR with (Gly)4Ser linker and (His)6 tag (human, UniProt P00533 25-643, biotinylated with Sulfo-NHS-LC-Biotin (B-sEGFR) in the filter lift and the capture ELISA)
T1 construct: range 25-643; also called B-sEGFR; biotinylated sEGFR
Experiment: KinExA; calculated as Kd x kon

B1: full-length monoclonal antibody VH4.15 (antibody, V domains shown)
VH: QVQLQESGPGLVKPSETLSLTCTVSGFSLTNYGVHWIRQPPGKGLEWIGNIWSGGNTDYNTPFTSRVTISVDTSKNQFSLKLSSVTAADTAVYYCARALDYYDYDYAYWGQGTMVTVSS
VL: EIVLTQSPDFQSVTPKEKVTITCRASYSIGTNIHWYQQKPDQSPKLLIKYASESISGVPSRFSGSGSGTDFTLTINSLEAEDAATYYCQQNNEWPTSFGGGTKVEIK
notes: Full-length antibody with human Fc
**Q.** B1 was tested. Which koff did it give?
**A.** 1.46e-06 s⁻¹

From patent EP1951759B1 (ELI LILLY AND COMPANY, dated 2010)
